# According to the supplement of paper PMC10065799, “High-throughput profiling of sequence recognition by tyrosine kinases and SH2 domains using bacterial peptide display” (eLife, 2023):
# What was measured:
# c-Src SH2 = assay: SH2 binding enrichment of the phosphorylated peptide, bacterial display (enrichment ratio); higher = better substrate or ligand; peptides without Tyr show the background
# Grb2 SH2 = Grb2 SH2 (UniProt P62993); assay: as above
# SHP2-C SH2 = assay: as above
# Fyn = Fyn (UniProt P06241); assay: phosphorylation enrichment, bacterial display (enrichment ratio); higher = better substrate or ligand; peptides without Tyr show the background
# Hck = Hck (UniProt P08631); assay: as above
# Fer (mouse) = assay: as above
# c-Src = assay: as above
# MERTK = MERTK (UniProt Q12866); assay: as above
# FGFR3 = FGFR3 (UniProt P22607); assay: as above
# Jak2 = Jak2 (UniProt O60674); assay: as above
# EPHB2 = EPHB2 (UniProt P29323); assay: as above
# FGFR1 = FGFR1 (UniProt P11362); assay: as above
# Fes = Fes (UniProt P07332); assay: as above
# AncSZ = assay: as above
# EPHB1 = EPHB1 (UniProt P54762); assay: as above
# c-Abl (mouse) = assay: as above
# 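For SH2 binding enrichment of the phosphorylated peptide, bacterial display in this document: peptide library displayed on the E. coli surface as eCPX fusions, selected cells deep-sequenced, score is each peptide's frequency after selection divided by its frequency in the input.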
# 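For phosphorylation enrichment, bacterial display in this document: 11-residue human phosphosite peptides and single-mutation variants displayed on the E. coli surface, counted by deep sequencing, each peptide's frequency after selection divided by its frequency in the unselected input library; frequency after pTyr selection over input frequency; kinase dosed for 20-30% of maximal phosphorylation in three min.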
# Chain of EPHB2 (P29323 whole entry, looked up): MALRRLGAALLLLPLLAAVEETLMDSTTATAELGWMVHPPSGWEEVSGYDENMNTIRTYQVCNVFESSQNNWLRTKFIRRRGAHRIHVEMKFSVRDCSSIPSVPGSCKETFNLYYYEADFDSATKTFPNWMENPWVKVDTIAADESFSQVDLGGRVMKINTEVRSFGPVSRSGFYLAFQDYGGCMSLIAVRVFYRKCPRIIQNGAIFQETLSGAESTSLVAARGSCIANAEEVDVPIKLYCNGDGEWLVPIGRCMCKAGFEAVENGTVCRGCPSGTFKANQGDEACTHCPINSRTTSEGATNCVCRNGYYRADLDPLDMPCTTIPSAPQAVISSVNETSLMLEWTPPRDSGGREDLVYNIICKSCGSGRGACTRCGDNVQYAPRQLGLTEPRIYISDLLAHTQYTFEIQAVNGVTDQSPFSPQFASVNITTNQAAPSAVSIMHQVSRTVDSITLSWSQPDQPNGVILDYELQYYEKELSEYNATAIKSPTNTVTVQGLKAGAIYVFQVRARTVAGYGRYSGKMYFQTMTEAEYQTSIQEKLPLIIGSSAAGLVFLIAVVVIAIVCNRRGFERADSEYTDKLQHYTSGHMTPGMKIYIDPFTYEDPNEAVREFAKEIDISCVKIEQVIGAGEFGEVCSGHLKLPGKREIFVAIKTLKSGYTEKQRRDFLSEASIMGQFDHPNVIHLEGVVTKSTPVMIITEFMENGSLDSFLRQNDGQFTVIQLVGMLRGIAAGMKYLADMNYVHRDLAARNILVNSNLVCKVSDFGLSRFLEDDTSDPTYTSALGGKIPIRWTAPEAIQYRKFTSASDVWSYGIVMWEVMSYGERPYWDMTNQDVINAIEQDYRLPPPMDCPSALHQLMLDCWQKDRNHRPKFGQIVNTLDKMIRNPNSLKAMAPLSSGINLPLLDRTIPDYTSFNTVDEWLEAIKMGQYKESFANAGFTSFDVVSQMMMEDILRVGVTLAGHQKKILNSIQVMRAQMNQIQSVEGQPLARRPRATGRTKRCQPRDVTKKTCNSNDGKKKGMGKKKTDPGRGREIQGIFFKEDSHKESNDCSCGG
# Chain of FGFR3 (P22607 whole entry, looked up): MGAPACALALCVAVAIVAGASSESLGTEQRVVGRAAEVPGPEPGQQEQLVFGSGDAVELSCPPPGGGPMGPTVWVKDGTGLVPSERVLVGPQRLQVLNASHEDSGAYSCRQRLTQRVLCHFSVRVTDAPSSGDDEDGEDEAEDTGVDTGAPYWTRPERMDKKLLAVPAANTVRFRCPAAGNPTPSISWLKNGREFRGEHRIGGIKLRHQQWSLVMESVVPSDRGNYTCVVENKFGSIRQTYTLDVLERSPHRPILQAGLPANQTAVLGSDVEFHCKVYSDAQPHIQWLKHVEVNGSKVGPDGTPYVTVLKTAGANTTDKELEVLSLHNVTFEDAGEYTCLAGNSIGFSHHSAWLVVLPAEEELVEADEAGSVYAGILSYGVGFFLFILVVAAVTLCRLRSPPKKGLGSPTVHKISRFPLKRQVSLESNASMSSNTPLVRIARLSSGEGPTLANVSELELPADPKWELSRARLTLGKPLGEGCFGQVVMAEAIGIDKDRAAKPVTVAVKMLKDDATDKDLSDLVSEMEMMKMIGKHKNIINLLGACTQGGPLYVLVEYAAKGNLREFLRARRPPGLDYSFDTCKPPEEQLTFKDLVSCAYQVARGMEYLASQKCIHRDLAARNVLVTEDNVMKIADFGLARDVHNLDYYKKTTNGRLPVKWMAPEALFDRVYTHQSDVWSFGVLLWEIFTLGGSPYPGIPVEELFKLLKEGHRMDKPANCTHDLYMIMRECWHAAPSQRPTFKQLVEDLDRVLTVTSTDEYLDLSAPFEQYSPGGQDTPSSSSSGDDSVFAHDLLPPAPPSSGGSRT
# Chain of MERTK (Q12866 whole entry, looked up): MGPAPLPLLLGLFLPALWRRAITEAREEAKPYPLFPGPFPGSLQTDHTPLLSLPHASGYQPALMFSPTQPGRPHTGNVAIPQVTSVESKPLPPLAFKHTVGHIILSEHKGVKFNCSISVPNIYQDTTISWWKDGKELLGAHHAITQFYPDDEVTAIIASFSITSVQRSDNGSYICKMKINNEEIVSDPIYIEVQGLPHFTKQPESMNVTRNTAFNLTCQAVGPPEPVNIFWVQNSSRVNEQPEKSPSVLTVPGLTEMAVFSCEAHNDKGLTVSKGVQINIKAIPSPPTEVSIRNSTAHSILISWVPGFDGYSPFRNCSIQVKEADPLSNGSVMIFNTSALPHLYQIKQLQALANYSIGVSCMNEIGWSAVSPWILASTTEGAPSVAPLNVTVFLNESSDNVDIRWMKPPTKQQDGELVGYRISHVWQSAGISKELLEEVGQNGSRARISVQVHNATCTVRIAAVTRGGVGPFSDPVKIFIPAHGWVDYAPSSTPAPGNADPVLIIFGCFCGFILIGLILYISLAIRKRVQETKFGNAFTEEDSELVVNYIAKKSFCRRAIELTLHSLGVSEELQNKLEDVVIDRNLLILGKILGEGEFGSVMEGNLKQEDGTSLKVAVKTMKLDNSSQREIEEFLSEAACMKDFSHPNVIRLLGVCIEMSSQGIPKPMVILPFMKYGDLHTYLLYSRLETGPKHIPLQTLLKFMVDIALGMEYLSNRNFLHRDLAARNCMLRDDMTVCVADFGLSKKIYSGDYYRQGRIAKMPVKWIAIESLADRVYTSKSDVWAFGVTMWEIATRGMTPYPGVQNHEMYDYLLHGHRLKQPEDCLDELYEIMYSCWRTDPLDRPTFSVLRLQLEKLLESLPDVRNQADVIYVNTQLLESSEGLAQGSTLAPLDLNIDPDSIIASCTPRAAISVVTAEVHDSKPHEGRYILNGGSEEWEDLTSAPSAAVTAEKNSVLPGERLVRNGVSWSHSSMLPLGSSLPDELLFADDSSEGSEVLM
# Chain of EPHB1 (P54762 whole entry, looked up): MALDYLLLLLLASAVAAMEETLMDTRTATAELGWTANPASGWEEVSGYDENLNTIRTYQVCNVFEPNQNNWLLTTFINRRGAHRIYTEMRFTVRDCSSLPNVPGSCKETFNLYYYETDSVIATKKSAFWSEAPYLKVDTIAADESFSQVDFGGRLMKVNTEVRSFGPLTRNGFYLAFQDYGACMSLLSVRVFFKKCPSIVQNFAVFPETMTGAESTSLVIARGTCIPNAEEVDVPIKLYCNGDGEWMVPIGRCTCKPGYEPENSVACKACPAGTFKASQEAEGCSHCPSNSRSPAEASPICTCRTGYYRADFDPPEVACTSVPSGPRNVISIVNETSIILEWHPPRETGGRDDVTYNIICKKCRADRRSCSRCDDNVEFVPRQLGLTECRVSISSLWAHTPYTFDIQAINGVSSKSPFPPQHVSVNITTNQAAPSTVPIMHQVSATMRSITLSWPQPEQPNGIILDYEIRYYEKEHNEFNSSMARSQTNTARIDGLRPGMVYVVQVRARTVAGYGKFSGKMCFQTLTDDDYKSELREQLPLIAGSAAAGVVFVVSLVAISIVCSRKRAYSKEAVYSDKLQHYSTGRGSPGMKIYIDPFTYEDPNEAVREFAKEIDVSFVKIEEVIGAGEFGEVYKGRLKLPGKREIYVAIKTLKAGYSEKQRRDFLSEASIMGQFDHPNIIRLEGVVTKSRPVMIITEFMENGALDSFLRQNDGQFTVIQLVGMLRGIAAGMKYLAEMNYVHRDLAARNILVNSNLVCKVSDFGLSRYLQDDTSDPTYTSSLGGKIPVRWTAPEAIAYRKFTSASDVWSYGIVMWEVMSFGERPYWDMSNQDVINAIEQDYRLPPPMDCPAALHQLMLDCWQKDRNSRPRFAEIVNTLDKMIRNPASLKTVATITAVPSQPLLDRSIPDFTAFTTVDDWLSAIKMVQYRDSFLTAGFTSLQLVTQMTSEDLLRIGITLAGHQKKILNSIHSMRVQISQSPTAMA
# Chain of Fyn (P06241 whole entry, looked up): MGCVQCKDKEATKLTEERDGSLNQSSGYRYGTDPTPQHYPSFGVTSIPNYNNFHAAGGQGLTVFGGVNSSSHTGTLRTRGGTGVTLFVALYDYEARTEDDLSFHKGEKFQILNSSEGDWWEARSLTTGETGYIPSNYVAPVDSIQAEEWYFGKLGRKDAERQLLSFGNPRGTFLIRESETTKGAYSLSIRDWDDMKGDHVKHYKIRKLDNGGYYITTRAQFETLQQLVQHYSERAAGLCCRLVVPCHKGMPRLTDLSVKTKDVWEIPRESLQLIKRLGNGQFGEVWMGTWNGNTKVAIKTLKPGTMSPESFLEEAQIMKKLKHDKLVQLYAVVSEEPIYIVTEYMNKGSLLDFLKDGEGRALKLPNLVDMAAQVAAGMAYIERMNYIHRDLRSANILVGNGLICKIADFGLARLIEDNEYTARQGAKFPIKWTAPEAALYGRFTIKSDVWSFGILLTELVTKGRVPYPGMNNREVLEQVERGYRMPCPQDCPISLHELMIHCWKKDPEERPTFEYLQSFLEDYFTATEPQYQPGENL
# Chain of Hck (P08631 whole entry, looked up): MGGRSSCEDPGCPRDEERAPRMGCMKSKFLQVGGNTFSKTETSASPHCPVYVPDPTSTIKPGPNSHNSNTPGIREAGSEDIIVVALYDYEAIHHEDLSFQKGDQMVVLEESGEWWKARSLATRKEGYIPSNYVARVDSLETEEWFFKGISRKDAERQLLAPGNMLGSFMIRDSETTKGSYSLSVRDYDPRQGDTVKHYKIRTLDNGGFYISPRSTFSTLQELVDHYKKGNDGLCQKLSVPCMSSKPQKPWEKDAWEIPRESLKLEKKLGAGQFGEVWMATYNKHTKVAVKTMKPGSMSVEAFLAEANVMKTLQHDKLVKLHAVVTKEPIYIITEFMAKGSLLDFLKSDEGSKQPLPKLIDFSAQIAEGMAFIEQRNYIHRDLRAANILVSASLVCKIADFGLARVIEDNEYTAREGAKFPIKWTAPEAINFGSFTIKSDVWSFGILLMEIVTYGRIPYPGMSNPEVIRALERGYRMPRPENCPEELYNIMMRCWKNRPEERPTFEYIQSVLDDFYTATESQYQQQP
Sequence,SH2 binding enrichment (c-Src SH2),SH2 binding enrichment (Grb2 SH2),SH2 binding enrichment (SHP2-C SH2),phosphorylation enrichment (Fyn),phosphorylation enrichment (Hck),phosphorylation enrichment (Fer (mouse)),phosphorylation enrichment (c-Src),phosphorylation enrichment (MERTK),phosphorylation enrichment (FGFR3),phosphorylation enrichment (Jak2),phosphorylation enrichment (EPHB2),phosphorylation enrichment (FGFR1),phosphorylation enrichment (Fes),phosphorylation enrichment (AncSZ),phosphorylation enrichment (EPHB1),phosphorylation enrichment (c-Abl (mouse))
DTLMEYLENPK [CYCS_Y68],0.502,0.915,0.872,0.484,0.69,0.677,0.562,0.529,0.905,1.28,0.682,0.511,1.49,1.51,0.672,0.95
DYYDLYGGKKF [PTPN11_Y66_E69K],0.388,0.74,0.581,3.27,5.9,0.421,3.05,1.21,9.68,0.971,1.22,11.5,0.825,1.31,1.89,0.698
EAGKVYLKAAM [CBFB_Y96_P100A],0.462,0.893,0.781,0.408,0.494,0.568,0.449,0.333,0.742,1.26,0.484,0.674,1.26,1.03,0.565,0.775
EALDFCGEVRT [PTEN_Y155_Y155C],0.534,1.07,0.645,0.583,0.642,0.674,0.545,0.482,1.09,1.41,0.691,0.803,1.48,1.31,0.882,0.984
EDDIIYTQDFM [STK11_Y362_T367M],0.466,0.984,0.65,1.03,0.992,0.776,1.1,0.784,1.25,1.21,0.746,0.911,1.31,1.49,0.697,0.889
EDGCIYPATIA [SMN1_Y109],0.589,0.927,0.671,0.587,0.577,0.513,0.539,0.545,0.727,1.1,0.562,0.546,1.37,1.07,0.744,0.87
EEAAGYAQESQ [CAMKV_Y491],0.577,1.05,0.718,0.401,0.661,0.547,0.604,0.325,0.691,1.2,0.543,0.545,1.39,1.22,0.523,0.935
EEEPVYKAEPE [HCLS1_Y360_E361K],0.569,0.797,0.509,0.675,0.595,0.576,0.717,0.518,0.891,1.36,0.525,0.597,1.49,1.06,0.573,0.826

# Now from value to sequence, other results behind:
SH2 binding enrichment (c-Src SH2),SH2 binding enrichment (Grb2 SH2),SH2 binding enrichment (SHP2-C SH2),Sequence,phosphorylation enrichment (Fyn),phosphorylation enrichment (Hck),phosphorylation enrichment (Fer (mouse)),phosphorylation enrichment (c-Src),phosphorylation enrichment (MERTK),phosphorylation enrichment (FGFR3),phosphorylation enrichment (Jak2),phosphorylation enrichment (EPHB2),phosphorylation enrichment (FGFR1),phosphorylation enrichment (Fes),phosphorylation enrichment (AncSZ),phosphorylation enrichment (EPHB1),phosphorylation enrichment (c-Abl (mouse))
0.599,0.836,0.611,DTERIYDDDFF [UBA1_Y560],0.748,0.668,0.995,0.736,0.702,0.876,1.63,0.62,0.605,1.41,1.36,0.661,1.01
0.909,0.93,0.578,DTVRIYDDDFF [UBA1_Y560_E557V],0.555,0.538,0.619,0.522,0.592,0.642,1.27,0.626,0.602,1.24,1.28,0.777,0.726
0.752,0.731,0.576,DVLEFYNSKKT [PAK1_Y131],0.525,0.518,1.13,0.504,0.405,0.718,1.11,0.544,0.856,1.38,1.08,0.517,0.925
0.606,0.907,0.818,DVLVEYQGEGR [GNS_Y416],0.504,0.496,0.43,0.464,0.414,0.599,0.934,0.533,0.545,1.08,0.945,0.427,0.709
0.478,0.874,0.741,EAIAKYDLKAT [GRB2_Y7_F9L],0.408,0.458,0.443,0.438,0.412,0.634,0.851,0.464,0.466,0.713,0.809,0.489,0.617
0.432,0.754,0.503,EAKENYGKTLK [CHL1_Y291_T287A],0.338,0.328,0.305,0.424,0.327,0.441,0.52,0.314,0.456,0.732,0.655,0.348,0.495
0.436,0.812,0.544,EDASEYFENFI [PARP4_Y214_F215Y_YF],0.613,0.624,0.598,0.618,0.58,1.58,1.39,0.806,1.48,1.47,2.37,0.798,1.07
0.473,0.795,0.714,EDGRLYAVKCS [PKMYT1_Y136_R140C],0.589,0.792,0.529,0.63,0.549,0.66,0.861,0.609,0.513,1.12,0.972,0.594,0.82
